Measured values taken from US20240116997A1 (BRIGHT PEAK THERAPEUTICS, published 2024).
Substitutions are numbered along the chain they refer to. Numbers in names are those of the source.

T1: IL-18 receptor (IL-18Rαβ) on cells (UniProt Q13478 19-541; O95256 20-599, limits assumed)
T1 sequence (looked up) 1: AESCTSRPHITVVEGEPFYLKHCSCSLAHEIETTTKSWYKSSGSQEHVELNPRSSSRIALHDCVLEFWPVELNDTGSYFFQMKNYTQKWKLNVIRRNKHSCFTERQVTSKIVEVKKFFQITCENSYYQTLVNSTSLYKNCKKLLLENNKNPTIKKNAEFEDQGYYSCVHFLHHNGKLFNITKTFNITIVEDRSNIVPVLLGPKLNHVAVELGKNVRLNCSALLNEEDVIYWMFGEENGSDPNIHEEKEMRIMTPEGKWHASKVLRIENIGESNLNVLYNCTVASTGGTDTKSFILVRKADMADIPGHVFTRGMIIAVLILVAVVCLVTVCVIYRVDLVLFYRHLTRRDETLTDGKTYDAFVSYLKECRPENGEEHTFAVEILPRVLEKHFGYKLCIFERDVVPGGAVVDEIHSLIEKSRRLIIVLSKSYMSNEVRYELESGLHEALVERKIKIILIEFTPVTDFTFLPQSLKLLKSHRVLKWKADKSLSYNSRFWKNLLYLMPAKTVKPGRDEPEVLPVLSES
T1 sequence (looked up) 2: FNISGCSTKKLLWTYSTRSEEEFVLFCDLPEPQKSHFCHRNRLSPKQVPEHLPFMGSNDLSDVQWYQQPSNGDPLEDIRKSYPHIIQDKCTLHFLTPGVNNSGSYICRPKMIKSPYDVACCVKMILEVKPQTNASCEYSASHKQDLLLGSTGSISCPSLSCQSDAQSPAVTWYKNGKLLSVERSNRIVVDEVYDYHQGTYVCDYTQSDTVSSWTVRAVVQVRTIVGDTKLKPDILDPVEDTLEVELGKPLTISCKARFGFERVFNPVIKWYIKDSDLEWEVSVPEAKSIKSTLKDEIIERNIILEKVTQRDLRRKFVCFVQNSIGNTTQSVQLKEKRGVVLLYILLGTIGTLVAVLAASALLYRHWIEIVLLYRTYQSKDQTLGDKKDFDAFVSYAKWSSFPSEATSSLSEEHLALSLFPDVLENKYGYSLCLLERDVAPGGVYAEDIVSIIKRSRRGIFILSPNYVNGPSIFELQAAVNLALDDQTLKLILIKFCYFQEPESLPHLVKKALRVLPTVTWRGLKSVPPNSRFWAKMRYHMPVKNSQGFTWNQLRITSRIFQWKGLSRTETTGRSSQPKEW

B1: IL-18 polypeptide SEQ ID NO: 43 (E06K, K53A, S55A, Y01G) (ligand)
chain: GFGKLKSKLSVIRNLNDQVLFIDQGNRPLFEDMTDSDCRDNAPRTIFIISMYADAQPRGMAVTISVKCEKISTLSCENKIISFKEMNPPDNIKDTKSDIIFFQRSVPGHDNKMQFESSSYEGYFLACEKERDLFKLILKKEDELGDRSIMFTVQNED
B2: IL-18 polypeptide SEQ ID NO: 44 (E06K, K53A, S55A, F02A) (ligand)
chain: B1 chain with G1Y, F2A
B3: IL-18 polypeptide SEQ ID NO: 45 (E06K, K53A, S55A, D54A) (ligand)
chain: B1 chain with G1Y, D54A
B4: C140 (SEQ ID NO: 83; N-terminal 4xG, E6K, V11I, C38A, K53A, T63A, C76A, C127A) (ligand)
chain: GGGGYFGKLKSKLSIIRNLNDQVLFIDQGNRPLFEDMTDSDARDNAPRTIFIISMYADSQPRGMAVAISVKCEKISTLSAENKIISFKEMNPPDNIKDTKSDIIFFQRSVPGHDNKMQFESSSYEGYFLAAEKERDLFKLILKKEDELGDRSIMFTVQNED
B5: C142 (Y1M, E6K, V11I, C38A, K53A, T63A, C76A, C127A) (ligand)
chain: B1 chain with G1M, V11I, C38A, A55S, T63A, C76A, C127A
B6: C176 (E6K, V11I, C38A, I49M, K53A, T63A, C76A, C127A) (ligand)
chain: B1 chain with G1Y, V11I, C38A, I49M, A55S, T63A, C76A, C127A
B7: C184 (E6R, V11I, C38A, K53A, T63A, C76A, C127A) (ligand)
chain: B1 chain with G1Y, K6R, V11I, C38A, A55S, T63A, C76A, C127A
B8: C174 (K8L, E6K, V11I, C38A, K53A, T63A, C76A, C127A) (ligand)
chain: B1 chain with G1Y, K8L, V11I, C38A, A55S, T63A, C76A, C127A
B9: C181 (E6K, V11I, C38A, K53A, T63A, C76A, C127A, V153E) (ligand)
chain: B1 chain with G1Y, V11I, C38A, A55S, T63A, C76A, C127A, V153E
B10: C177 (E6K, V11I, C38A, I49R, K53A, T63A, C76A, C127A) (ligand)
chain: B1 chain with G1Y, V11I, C38A, I49R, A55S, T63A, C76A, C127A
B11: IL-18 polypeptide SEQ ID NO: 56 (E6K, K53A, C38S, C76S, C127S) (ligand)
chain: B1 chain with G1Y, C38S, A55S, C76S, C127S
B12: C178 (E6K, V11I, C38A, K53A, T63A, C76A, Q103R, C127A) (ligand)
chain: B1 chain with G1Y, V11I, C38A, A55S, T63A, C76A, Q103R, C127A
B13: C179 (E6K, K8E, V11I, C38A, K53A, T63A, C76A, Q103R, C127A) (ligand)
chain: B1 chain with G1Y, K8E, V11I, C38A, A55S, T63A, C76A, Q103R, C127A
B14: C183 (SEQ ID NO: 80; E6K, V11I, C38A, M51G, K53A, T63A, C76A, C127A) (ligand)
chain: B1 chain with G1Y, V11I, C38A, M51G, A55S, T63A, C76A, C127A
B15: C182 (E6K, V11I, C38A, K53A, T63A, C76A, C127A, V153Y) (ligand)
chain: B1 chain with G1Y, V11I, C38A, A55S, T63A, C76A, C127A, V153Y
B16: C141 (SEQ ID NO: 82; N-terminal G, E6K, V11I, C38A, K53A, T63A, C76A, C127A) (ligand)
chain: GYFGKLKSKLSIIRNLNDQVLFIDQGNRPLFEDMTDSDARDNAPRTIFIISMYADSQPRGMAVAISVKCEKISTLSAENKIISFKEMNPPDNIKDTKSDIIFFQRSVPGHDNKMQFESSSYEGYFLAAEKERDLFKLILKKEDELGDRSIMFTVQNED
B17: C192 (SEQ ID NO: 81; N-terminal G, E6K, V11I, C38A, M51G, K53A, T63A, C76A, C127A) (ligand)
chain: B16 chain with M52G

biological target: T1, IL-18 receptor (IL-18Rαβ) on cells; assay: cell-based or functional assay

First: B1
Second: B2
The “EC50 (nM), IFNγ induction, NK-92 cells” value of the first is lower: 6.12 nM for the first, over 1000 nM for the second.

B3 was tested, and the “EC50 (nM), IFNγ induction, NK-92 cells” value was 30 nM.

biological target: T1, IL-18 receptor (IL-18Rαβ) on cells; assay: cell-based or functional assay; remark: another data set of the same source

First: B4
Second: B5
The “EC50 (pM), HEK-Blue IL-18R reporter assay” value (“EC50 (pM)” below) of the first is higher: 2.5 pM for the first, 0.02 pM for the second.

First: B6
Second: B7
The “EC50 (pM)” value of the first is higher: 0.07 pM for the first, 0.04 pM for the second.

Going from B8 to B9, the “EC50 (pM)” value falls from 0.29 pM to 0.1 pM.

Going from B10 to B11, the “EC50 (pM)” value rises from 0.04 pM to 3.73 pM.

Compared with B12, B13 is higher in “EC50 (pM)” value: 0.26 pM for the first, 0.4 pM for the second.

Going from B14 to B15, the “EC50 (pM)” value falls from 0.1 pM to 0.08 pM.

Going from B16 to B17, the “EC50 (pM)” value rises from 1.68 pM to 14 pM.
